PMC4457907

Experiments:
[1] = molecular target: T1, AtrA (Streptomyces coelicolor) (UniProt Q9KYF2); test: EMSA; details: SlbR EMSA: 0.5x TBE pH 8.0, 0.0375% glycerol, 5 mM MgCl2, 1 mM DTT, 7.5 ug salmon sperm DNA in 20 ul, 30 min room temperature; AtrA EMSA: as Uguru et al. 2005 …
T1 sequence: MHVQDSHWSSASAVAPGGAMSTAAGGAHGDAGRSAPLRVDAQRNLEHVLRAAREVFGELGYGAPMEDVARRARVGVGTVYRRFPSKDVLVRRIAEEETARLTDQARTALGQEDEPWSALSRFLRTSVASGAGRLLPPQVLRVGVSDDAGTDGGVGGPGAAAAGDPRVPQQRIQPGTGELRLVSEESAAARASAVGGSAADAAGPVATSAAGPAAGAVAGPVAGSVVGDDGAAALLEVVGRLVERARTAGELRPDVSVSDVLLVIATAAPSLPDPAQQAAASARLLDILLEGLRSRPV

[2] = tested on: AtrA (Streptomyces coelicolor); test: EMSA; details: SlbR EMSA: 0.5x TBE pH 8.0, 0.0375% glycerol, 5 mM MgCl2, 1 mM DTT, 7.5 ug salmon sperm DNA in 20 ul, 30 min room temperature, AtrA EMSA: as Uguru et al. 2005 …

Substance: AGCCGCGGGAACCAACGTCGCACGGCATGATCACGCAGGTCAGCGTGGGTGAGTGGGGGTTCGGAGGGGGGCACATCCGGGGCGGGCGCCATCCGTGCTCCGATCGGGGGGCGCTCCGTGCGGAACGTGCCCCTTCTGAATTGACCCCCGCTCAACTATGTTCTTTCCCACGGTGTGTAG (double strand) [SCO4119 promoter probe (179 bp)]
- binding signal [1]: binds more weakly

Substance: GTGAGAGCCGTGGGACACCGGTGGCGGTAACAGGAACCACCGGTTCCCTCGGGCGAGGGAAGTTTCCCGGACGGACCGTCGGTGAGCGGTGACCGACGGTTAGAGTCCGGAACTCCACGCGGGGGCGACTCCGCGAATGGCGCACCCCCCACCCGTGTTCGCCGCACGGGCCGCCACCTCGCGTTCCGGGAGTGATCCTTGGCCACGGCTGACACCGCATTCGCT (double strand) [ssgR promoter probe (224 bp)]
- Kd [1]: 1200 nM

Substance: actII-ORF4 site 2 probe (100 bp)
- Kd ([2]; cited from earlier work): 150 nM

Substance: ssgR promoter probe (224 bp)
- Kd ([2]; apparent Kd', 5 nM probe): 1200 nM
